Assay results reported in the nanobody polyreactivity screen of Harvey et al. (2022).

Assay: yeast display, Sf9 membrane polyspecificity reagent, FACS + sequencing; frameworks hold sequencing errors
Summary of the method: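 Sorting gates, low and high (top ~1%), were placed on anti-HA fluorescence to track expression and on streptavidin fluorescence to track reagent binding. A clone's polyreactivity label is taken from the gate it came out of. The reagent was 10% biotinylated, detergent-solubilized Sf9 membrane, applied for 1 hour at 4 °C to galactose-induced yeast display cells.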

Row | Sequence | polyreactivity (PSR sort gate)
1 | QVQLLESGGGLVQAGGFLRLSCASSGSTFFIYAMGWYRPAPGKERELDAAISWSGGSTYYADSVKGRFTISPDKANNTVYLQMICLKPEYTAVYYCADESYYFDEYYWGQATQVTVSS | high polyreactivity
2 | QVQLLESGGGLVQAGGILRLSCAASGRIIVYYAMGWYRQAPGKERELVAAITRGGSTKYADSVKGRFTISRDNAKNTVYLQMNSLKPEDTAVYYCATATSRRSGYDYWGQGTQVSVSS | high polyreactivity
3 | QVQLLESGGGLVQAGGRLRLSCAASRNTFRQTAMGWNRQAPGKETELVASITSGGSTYYADSVQGRFTISRDNAKNTVYLQMNSLNPEDTAVYYCASRYIRSASWFYRIYDYWGQGTQVTVSS | high polyreactivity
4 | QVQLLESGGGLVQAGGSLRISCAASGSTFVRYPMGWYRQAPGKERELVAGISSGDRTYYADSVKGRFTISRDNAKNTVYLQMNSLKPEYTSVYYCNARPVYLLEGYYWGQGTQVTVSS | low polyreactivity
5 | QVQLLESGGGLVQAGGSLRISCAASGSTFVSNAMGWYRQAPGKERELVAAISRSAGRTYYADSVKGRFTISRDTAKNTVYLQMTSLKPEDTAVYYCAARVVHCFGFWGQGTQVTVSS | high polyreactivity
6 | QVQLLESGGGLVQAGGSLRLSCAASGFNFGGYVMGWYRQAPGKESELVAAISSSGGITHYADSLKGRFTISRDNAKNTVSLQMNRLKPEDTAVYYCNALYRQRYYWGQGTQVTVSS | high polyreactivity
7 | QVQLLESGGGLVQAGGSLRLSCAASGFNFYRYAMGWYRQAPGKERELVAAIRKSGGSTYYADSVKGRFTISRDNAKNTVYCQMNSLKPEDTAVSYCAKRYATDGFGYWGQGTQVSVSS | high polyreactivity
8 | QVQLLESGGGLVQAGGSLRLSCAASGFTFSRYAMGWYRQAPGKERELVAAITSSGGSTYYADSVKGRFTISRDNAKNTVYLQMLSLKPEDSAVYYCAAGKYTASNGYGYWGQGTQVTVSS | high polyreactivity
9 | QVQLLESGGGLVQAGGSLRLSCAASGGTFYSYAMGWYRQAPGKERELVATITRRSGSTYYADSVKGRFTISRDNAKNTVYLQMNSLKPEDTAVYYCAATKYKLLFIHFRYDYWGQGTQVTVSS | high polyreactivity
10 | QVQLLESGGGLVQAGGSLRLSCAASGITFSQYAMGWYRQAPGKERELVAAISWSGGSTYYANSVKGRFTISRDNAKNTVYLQMNSLKPEDTAVYYCAAVPVHTGSLYWGFTTGYDYWGQGTQVTVSS | low polyreactivity
11 | QVQLLESGGGLVQAGGSLRLSCAASGRIFDPYAMGWYRQAPGKERELVAAITGSGDGTYYADTVKGRYTISRYNAKNTVYLQMNRLKPEDTAVYYCAAVGRDRFVIHDYWGQGTQVTVSS | low polyreactivity
12 | QVQLLESGGGLVQAGGSLRLSCAASGRIFGYYTMGWYRQAPGKERELVAGITRRGGRTYYADSVKGRFTISRDNAKNTVYLEMNSLKPEDTAGYYCAVRSGVNFYYWGQGTQVTVSS | high polyreactivity
13 | QVQLLESGGGLVQAGGSLRLSCAASGRIFSENAMGWYRQAPGKERELVAAITGNGGDTYYADSVKGRFTISRDNAMNTVYLQMNSLKPEDTAVYYSAAETGGLGGEYWGQGTHVTVSS | low polyreactivity
14 | QVQLLESGGGLVQAGGSLRLSCAASGRIFVYNVMGWSRQAPGKERELVADINGSGGGTIFADSVKGRFTISRDNAKNNVYFQMNSLKPVDTAVYYCNADSYEYHVPYYDYRYDYWGHGTQVTVSS | low polyreactivity
15 | QVQLLESGGGLVQAGGSLRLSCAASGRIYLGYALGWYRQAPGKERELVAAITSSGGYTYYADSVKGRFTISLDNAKNTVYLQMNSLKPEDTAVYYCNVYRFGWWYTNDYWGQGTQVTVSS | high polyreactivity
16 | QVQLLESGGGLVQAGGSLRLSCAASGRMFGSNAMGWYRQAPGKERELVAAITRGGSTNYADSVKGRFTISRDNAKNTVYFQMNSLKPEDTAVYYCAVRWYRKYNYWGQGTQVTVSS | high polyreactivity
17 | QVQLLESGGGLVQAGGSLRLSCAASGSIFLFYDMGLYRHAPGKERELVATITSGTNTYADSVKGRFTISRDNAKNTGYLQMNSLKPEDTAVYSCAAGFSTASQLDYWGQVTQVTVSS | low polyreactivity
18 | QVQLLESGGGLVQAGGSLRLSCAASGSIFPAYSMGWYRQAPGKERELVASITGSGGSTYYADSVKGRFTISRDNAKNSVYLQMTSLKPEETAVYYCNARYYVYSATVDRYYHFYYWGQGTQVTVSS | high polyreactivity
19 | QVQLLESGGGLVQAGGSLRLSCAASGSIFYYYTMGWYRQAPGKETELVAAISRGGSTNYADSVKGRFTISRDNAKNTVYLQMNSLKPEDTAVYYCAADRLSGRYAYRFDYWGQGTQVTVSS | low polyreactivity
20 | QVQLLESGGGLVQAGGSLRLSCAASGSIIRQNGMVWYRPAPGKEREFVAAITRTGGSTYYADSVKGRFTISRDNAKNTVYLHMNSLKPEDTAGYYCAARGGYRYTRYDYWGQGTQVTVSS | high polyreactivity
21 | QVQLLESGGGLVQAGGSLRLSCAASGSPFYYYARGWYRQAPGKERELVARITYGGSRTYYADSVKGRFTISRDNAKYTVYLQMNSLKPEDTAVYYCNAGRVLYGYYLYDYWGQGTQLTVSS | high polyreactivity
22 | QVQLLESGGGLVQAGGSLRLSCAASGSTFDRNTMGWYRQAPGTVRELVAAITWSSGSTYYADSVKGRFTISRDNAKNTVYLQMNSLKPEDTAVYYCAADRIRYRSRHKYGYWVQGTQVTVSS | low polyreactivity

Row | Sequence | polyreactivity (PSR sort gate)
23 | QVQLLESGGGLVQAGGSLRLSCAASGSTFDYKSMGWYRQAPGKERELVATINDSGGNTYYADSVKGRFTISRDNAKNTVYLQMNSLKPEDTAVYYCATVGYLYTPVVVTWWDWGDYWGQGTQVTVSS | low polyreactivity
24 | QVQLLESGGGLVQAGGSLRLSCAASGSTFRWYAMGWYRQAPGRERELVAAITWSGGRTYYADSVKGRFTISRDNAKNTVYLQMNSLKPEYTAVYYCNAVYYHVVDFDYWGQGTQVTVSS | high polyreactivity
25 | QVQLLESGGGLVQAGGSLRLSCAASGSTFTYNAMGWYRQAPGKERELVAAISSSGGSTYYADSVKGRFTISRDNAKNTVYLQMTSLNPEDTAVYYCAKRWLYTSAFRKMDYWGQGTQVTVSS | high polyreactivity
26 | QVQLLESGGGLVQAGGSLRLSCAASVFTFYGYAMGWYRQAPGKERELVAAISRRGGSTYYADSVKGRFTISRDNAKNTVYLQMNSLKPEDTAVYYCATDRAYYHSYGRFGYWGQGTQVTVSS | high polyreactivity
27 | QVQLLESGGGLVQAGGSLRLSCAPSGFTYRYNAMVWYRQAPGIERELVAAISSRGGSTYYADSVKGRFTISRDNAKNTVYFQMNSLKPEDTGVYYCARDDWVYTNVEMDYWGQGTQVTVSS | high polyreactivity
28 | QVQLLESGGGLVQAGGSLRLSCAPSGRTFARYDMAWYTQAPGKERELVAVISRTGSTYYADSVKGSFTISRDNEKITVYLLMNSLKPEDTAVYYCATVYVYWGQGTQVTVSS | high polyreactivity
29 | QVQLLESGGGLVQAGGSLRLSSAASGSILDHYAMGWYRQAPGNEREFVAAISIRGGSTYYADSVKGRFTISRDNAKNTVFLQMNSLKPEDNAVYYCAATAQYGRDSWSSYRMFPPYDYWGQGTEVTVSS | low polyreactivity
30 | QVQLLESGGGLVQAGGSLRLSSMASASILGDRMSWYRQAPGKEHELVATIYDGGISYYADSMKGRFTISRDNAKNTVYLQMNSLRPEDTAVFFCGASFEGYRFHVYCGQGTQVTVSS | low polyreactivity
31 | QVQLLESGGGLVQAGGSLRLTCGASGITFSVNTMGWYRQAPGKDRELVAAFTSAGGTYYADSVKGRFTISRDTAKNTVYFQMISQKPEDTAVYYCATPYDIQWASESHDYWGQGTQVTVSS | low polyreactivity
32 | QVQLLESGGGLVQAGRSLCLSCAASGSIIINAMGWYRQAPGKERELVATIRWRGGTTYYADSVKGRFTISRDNAKNTVYLQRNSLKPEDTAVYYCAADRSYYPDPRTTYGYNYWGQGTQVTVSS | low polyreactivity
33 | QVQLLESGGGLVQAGVSHRLSCASSGFIFTYYAMGWYRQAPGKESELVASISTYGGNTNYADSVKGRFTISRDNAKNTVYIQMNSLIPEDTAVYYCAARIGNQYHTGYPTAGRKYGYWGQGTQVSVSS | high polyreactivity
34 | QVQLLESGGGLVQARGSLRLSCAASGITFSRYAMGWYRQAPGKERELVAAITRRGGNTYYADSVKGSFTISRVYAKNTVYLQMNSLKPEDTAVYYCAAGYTYYRGDYWGQGTQVTVSS | high polyreactivity
35 | QVQLLESGGGLVQPGGSLRLSCAASGRIFRHSAMGWYRQAPGKERELVAAISGGGGRTYYADSVKGRFTISRDNAKLSVDLQMNSLKPEDTAVYYCAAYRSRHYYYWGHGTQVTVSS | high polyreactivity
36 | QVQLLESGGGLVQPGGSLRLSCAASGSIFGRNVMGWYRQAPGKERELVAAISSSGGRTYYADSVKGRFTISRDNAKNNVYLQMNCLKPEDTAVYYCADRYGIKYYYWGQGTQVTVSS | high polyreactivity
37 | QVQLLESGGVLVQAGGSLRLSCAASGFTFWYYAMGWYRQAPGKQRELVATITWNVGSTYYADSVKGRFTISRDNAKNTVYIQMNTLKPEDTAVYYCNKSYSRSSYWQYYYWGQGTQVTVSS | low polyreactivity
38 | QVQLLESGRGLVQAGGTLRLSCAPSGRTFSVNAMGWYRQAPGKERELVAAISWDGGSTYYADSVKVRFTISRDNAKNTVYLQMNSLKQEDTAVYYCNKDLYYAYDYWGQGTQVTVSS | low polyreactivity
39 | QVQLLESGVGKVQAGGRLRLSCAASGSIFLIYAMGWYRQAPGKESELVAAISSGGSKYYADSVNGRFTISRDNAKNTVYLQMNSVKPEDTAVYYCATYSTCVAYHLYYWGQGTQVSVSS | low polyreactivity
40 | QVQLLESWGGLVQAGGSLRLSCAASGRTSTRNAMGWYRQAPGNERELVAAISWSGGRTHYADSVKGRFTISRDNAKNTVYLQMNSLKPEDTAVYYCAAAYTGGQKYYSWGQGTEVTVSS | high polyreactivity
41 | QVQLLETGGGLVQAGGSLRLSCAASGITFKYYSMGWYRQAPGKERELFATITKRGGSTYYADSVKGRFTISRDNAKNTVYLQMNSLKPVDTAVYYCAAEILIRFWGVQWGGEYWGQGTQVTVSS | high polyreactivity
42 | QVQLLETGGVLVQAGGSLRLSCAASGFIFGINAMGWYRQAPGKERELVATITSGGGTNYADSVKGRFTISRDNAKINVYLQMNSLKPEDSAVYYCNAQIAWATYEGDYWGQGTQVTVSS | low polyreactivity
43 | QVQLPGSGGGLVQAGGSLRLSCAASGYIFQNVPMGWTRQAPGKERDLVAGIDNGTSTNYADSVNGRFTISRDNAKNTVYLQMNSLKPEDTAVYYCAAAGQADDTLGYWGQGTQVTVSS | low polyreactivity
